EC50 data for 4 molecules are collected here from article PMC8786347 (Oncoimmunology, 2022).

Common to all, as to assay: ELISA
(In general: ELISA stands for enzyme-linked immunosorbent assay.)

One assay deals with CD40-huFc (UniProt P25942 21-193).
The target in a further assay is T1, CD27-moFc (UniProt P26842 20-191).
T1 sequence (looked up): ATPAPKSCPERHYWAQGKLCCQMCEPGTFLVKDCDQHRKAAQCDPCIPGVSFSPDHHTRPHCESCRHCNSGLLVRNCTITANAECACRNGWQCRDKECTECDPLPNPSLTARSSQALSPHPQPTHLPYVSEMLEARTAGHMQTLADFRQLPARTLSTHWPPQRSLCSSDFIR

The next assay addresses CD40-moFc (UniProt P25942 21-193).
In a further assay the target is T2, OX40-moFc (UniProt P43489 29-214).
T2 sequence (looked up): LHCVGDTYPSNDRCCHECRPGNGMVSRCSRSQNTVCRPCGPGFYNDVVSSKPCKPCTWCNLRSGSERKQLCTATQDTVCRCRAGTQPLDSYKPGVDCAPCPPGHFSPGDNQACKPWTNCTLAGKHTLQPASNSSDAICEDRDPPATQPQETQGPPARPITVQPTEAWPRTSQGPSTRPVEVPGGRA

A further assay addresses T3, mCD27-Fc (mouse, UniProt P41272 24-182).
T3 sequence (looked up): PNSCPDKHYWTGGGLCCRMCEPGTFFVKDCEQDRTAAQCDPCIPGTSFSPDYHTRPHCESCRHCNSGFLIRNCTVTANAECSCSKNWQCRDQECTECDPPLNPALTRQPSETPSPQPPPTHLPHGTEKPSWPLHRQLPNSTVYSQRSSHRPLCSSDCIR

The target of a further assay is T4, mCD40-Fc (mouse, UniProt P27512 20-193).
T4 sequence (looked up): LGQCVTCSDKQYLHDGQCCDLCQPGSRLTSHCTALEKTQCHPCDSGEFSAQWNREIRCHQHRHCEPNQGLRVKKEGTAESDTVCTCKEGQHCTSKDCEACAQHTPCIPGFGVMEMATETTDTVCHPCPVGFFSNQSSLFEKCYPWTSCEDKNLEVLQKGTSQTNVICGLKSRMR

Another assay concerns the target T5, mOX40-Fc (mouse, UniProt P47741 20-211).
T5 sequence (looked up): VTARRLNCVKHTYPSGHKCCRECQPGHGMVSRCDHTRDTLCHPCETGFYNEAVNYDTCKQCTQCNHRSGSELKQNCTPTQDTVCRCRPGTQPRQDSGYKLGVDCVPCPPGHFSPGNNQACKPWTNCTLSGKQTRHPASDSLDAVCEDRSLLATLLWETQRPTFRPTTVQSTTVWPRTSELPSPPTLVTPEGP

A further assay concerns the target T6, m4-1BB-Fc (mouse, UniProt P20334 24-187).
T6 sequence (looked up): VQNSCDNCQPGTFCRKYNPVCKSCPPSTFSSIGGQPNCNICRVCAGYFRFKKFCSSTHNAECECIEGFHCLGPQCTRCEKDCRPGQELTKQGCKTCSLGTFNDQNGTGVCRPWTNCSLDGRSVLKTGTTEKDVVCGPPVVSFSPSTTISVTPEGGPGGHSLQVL

Chain of CD40-huFc (P25942 21-193): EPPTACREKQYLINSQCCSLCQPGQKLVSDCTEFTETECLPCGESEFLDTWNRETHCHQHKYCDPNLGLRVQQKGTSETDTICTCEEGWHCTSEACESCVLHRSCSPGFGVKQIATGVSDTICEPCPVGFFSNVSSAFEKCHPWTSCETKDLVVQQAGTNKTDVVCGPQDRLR
Chain of CD40-moFc (P25942 21-193): as above

B1: scCD40L-scCD27L-Fc (Fc fusion, human)
chain 1: GDQNPQIAAHVISEASSKTTSVLQWAEKGYYTMSNNLVTLENGKQLTVKRQGLYYIYAQVTFCSNREASSQAPFIASLCLKSPGRFERILLRAANTHSSAKPCGQQSIHLGGVFELQPGASVFVNVTDPSQVSHGTGFTSFGLLKLGGGDQNPQIAAHVISEASSKTTSVLQWAEKGYYTMSNNLVTLENGKQLTVKRQGLYYIYAQVTFCSNREASSQAPFIASLCLKSPGRFERILLRAANTHSSAKPCGQQSIHLGGVFELQPGASVFVNVTDPSQVSHGTGFTSFGLLKLGGGDQNPQIAAHVISEASSKTTSVLQWAEKGYYTMSNNLVTLENGKQLTVKRQGLYYIYAQVTFCSNREASSQAPFIASLCLKSPGRFERILLRAANTHSSAKPCGQQSIHLGGVFELQPGASVFVNVTDPSQVSHGTGFTSFGLLKL
chain 2: SLGWDVAELQLNHTGPQQDPRLYWQGGPALGRSFLHGPELDKGQLRIHRDGIYMVHIQVTLAICSSTTASRHHPTTLAVGICSPASRSISLLRLSFHQGCTIASQRLTPLARGDTLCTNLTGTLLPSRNTDETFFGVQWVRPGGSLGWDVAELQLNHTGPQQDPRLYWQGGPALGRSFLHGPELDKGQLRIHRDGIYMVHIQVTLAICSSTTASRHHPTTLAVGICSPASRSISLLRLSFHQGCTIASQRLTPLARGDTLCTNLTGTLLPSRNTDETFFGVQWVRPGGSLGWDVAELQLNHTGPQQDPRLYWQGGPALGRSFLHGPELDKGQLRIHRDGIYMVHIQVTLAICSSTTASRHHPTTLAVGICSPASRSISLLRLSFHQGCTIASQRLTPLARGDTLCTNLTGTLLPSRNTDETFFGVQWVRP
Regarding B1, the EC50 in the assay with CD40-huFc turned out to be 100 pM; with CD27-moFc it was 300 pM.

B2: scCD40L-scOX40L-Fc (Fc fusion, human)
chain 1: B1 chain 1
chain 2: QVSHRYPRIQSIKVQFTEYKKEKGFILTSQKEDEIMKVQNNSVIINCDGFYLISLKGYFSQEVNISLHYQKDEEPLFQLKKVRSVNSLMVASLTYKDKVYLNVTTDNTSLDDFHVNGGELILIHQNPGEFCVLGGGGSGGGGSGGGGSQVSHRYPRIQSIKVQFTEYKKEKGFILTSQKEDEIMKVQNNSVIINCDGFYLISLKGYFSQEVNISLHYQKDEEPLFQLKKVRSVNSLMVASLTYKDKVYLNVTTDNTSLDDFHVNGGELILIHQNPGEFCVLGGGGSGGGGSGGGGSQVSHRYPRIQSIKVQFTEYKKEKGFILTSQKEDEIMKVQNNSVIINCDGFYLISLKGYFSQEVNISLHYQKDEEPLFQLKKVRSVNSLMVASLTYKDKVYLNVTTDNTSLDDFHVNGGELILIHQNPGEFCVL
Turning to B2, the values for the EC50 with CD40-huFc, with CD40-moFc and with OX40-moFc were 500 pM, 300 pM and 200 pM, respectively.

B3: mscCD40L-mscCD27L-mFc (Fc fusion)
chain 1: HRRLDKVEEEVNLHEDFVFIKKLKRCNKGEGSLSLLNCEEMRRQFEDLVKDITLNKEEKKENSFEMQRGDEDPQIAAHVVSEANSNAASVLQWAKKGYYTMKSNLVMLENGKQLTVKREGLYYVYTQVTFCSNREPSSQRPFIVGLWLKPSSGSERILLKAANTHSSSQLCEQQSVHLGGVFELQAGASVFVNVTEASQVIHRVGFSSFGLLKLGGHRRLDKVEEEVNLHEDFVFIKKLKRCNKGEGSLSLLNCEEMRRQFEDLVKDITLNKEEKKENSFEMQRGDEDPQIAAHVVSEANSNAASVLQWAKKGYYTMKSNLVMLENGKQLTVKREGLYYVYTQVTFCSNREPSSQRPFIVGLWLKPSSGSERILLKAANTHSSSQLCEQQSVHLGGVFELQAGASVFVNVTEASQVIHRVGFSSFGLLKLGGHRRLDKVEEEVNLHEDFVFIKKLKRCNKGEGSLSLLNCEEMRRQFEDLVKDITLNKEEKKENSFEMQRGDEDPQIAAHVVSEANSNAASVLQWAKKGYYTMKSNLVMLENGKQLTVKREGLYYVYTQVTFCSNREPSSQRPFIVGLWLKPSSGSERILLKAANTHSSSQLCEQQSVHLGGVFELQAGASVFVNVTEASQVIHRVGFSSFGLLKL
chain 2: SKQQQRLLEHPEPHTAELQLNLTVPRKDPTLRWGAGPALGRSFTHGPELEEGHLRIHQDGLYRLHIQVTLANCSSPGSTLQHRATLAVGICSPAAHGISLLRGRFGQDCTVALQRLTYLVHGDVLCTNLTLPLLPSRNADETFFGVQWICPGGSKQQQRLLEHPEPHTAELQLNLTVPRKDPTLRWGAGPALGRSFTHGPELEEGHLRIHQDGLYRLHIQVTLANCSSPGSTLQHRATLAVGICSPAAHGISLLRGRFGQDCTVALQRLTYLVHGDVLCTNLTLPLLPSRNADETFFGVQWICPGGSKQQQRLLEHPEPHTAELQLNLTVPRKDPTLRWGAGPALGRSFTHGPELEEGHLRIHQDGLYRLHIQVTLANCSSPGSTLQHRATLAVGICSPAAHGISLLRGRFGQDCTVALQRLTYLVHGDVLCTNLTLPLLPSRNADETFFGVQWICP
For B3, the EC50 with mCD27-Fc was found to be 400 pM; with mCD40-Fc it was 1400 pM.

B4: msc4-1BBL-mscOX40L-mFc (Fc fusion)
chain 1: RTEPRPALTITTSPNLGTRENNADQVTPVSHIGCPNTTQQGSPVFAKLLAKNQASLCNTTLNWHSQDGAGSSYLSQGLRYEEDKKELVVDSPGLYYVFLELKLSPTFTNTGHKVQGWVSLVLQAKPQVDDFDNLALTVELFPCSMENKLVDRSWSQLLLLKAGHRLSVGLRAYLHGAQDAYRDWELSYPNTTSFGLFLVKPDNPWEGGGGSGGGGSGGGGSGGGGSRTEPRPALTITTSPNLGTRENNADQVTPVSHIGCPNTTQQGSPVFAKLLAKNQASLCNTTLNWHSQDGAGSSYLSQGLRYEEDKKELVVDSPGLYYVFLELKLSPTFTNTGHKVQGWVSLVLQAKPQVDDFDNLALTVELFPCSMENKLVDRSWSQLLLLKAGHRLSVGLRAYLHGAQDAYRDWELSYPNTTSFGLFLVKPDNPWEGGGGSGGGGSGGGGSGGGGSRTEPRPALTITTSPNLGTRENNADQVTPVSHIGCPNTTQQGSPVFAKLLAKNQASLCNTTLNWHSQDGAGSSYLSQGLRYEEDKKELVVDSPGLYYVFLELKLSPTFTNTGHKVQGWVSLVLQAKPQVDDFDNLALTVELFPCSMENKLVDRSWSQLLLLKAGHRLSVGLRAYLHGAQDAYRDWELSYPNTTSFGLFLVKPDNPWE
chain 2: SSSPAKDPPIQRLRGAVTRCEDGQLFISSYKNEYQTMEVQNNSVVIKCDGLYIIYLKGSFFQEVKIDLHFREDHNPISIPMLNDGRRIVFTVVASLAFKDKVYLTVNAPDTLCEHLQINDGELIVVQLTPGYCAPEGSYHSTVNQVPLGGGGSGGGGSGGGGSSSSPAKDPPIQRLRGAVTRCEDGQLFISSYKNEYQTMEVQNNSVVIKCDGLYIIYLKGSFFQEVKIDLHFREDHNPISIPMLNDGRRIVFTVVASLAFKDKVYLTVNAPDTLCEHLQINDGELIVVQLTPGYCAPEGSYHSTVNQVPLGGGGSGGGGSGGGGSSSSPAKDPPIQRLRGAVTRCEDGQLFISSYKNEYQTMEVQNNSVVIKCDGLYIIYLKGSFFQEVKIDLHFREDHNPISIPMLNDGRRIVFTVVASLAFKDKVYLTVNAPDTLCEHLQINDGELIVVQLTPGYCAPEGSYHSTVNQVPL
As for B4, the EC50 with mOX40-Fc was determined as 55200 pM; with m4-1BB-Fc, 9200 pM.

A word on the EC50: it is the midpoint of the concentration-response curve. Higher therefore signals a need for much substance.
